In patent publication US20220025381A1:
Values belong to the binder of their own block, whether it stands above or below them.

Tests used:
Test in all cases: cell-based or functional assay
[1] = target: T1, CD374 PV1-RfxCas13d-560C-NLS-BGHpA
T1 sequence: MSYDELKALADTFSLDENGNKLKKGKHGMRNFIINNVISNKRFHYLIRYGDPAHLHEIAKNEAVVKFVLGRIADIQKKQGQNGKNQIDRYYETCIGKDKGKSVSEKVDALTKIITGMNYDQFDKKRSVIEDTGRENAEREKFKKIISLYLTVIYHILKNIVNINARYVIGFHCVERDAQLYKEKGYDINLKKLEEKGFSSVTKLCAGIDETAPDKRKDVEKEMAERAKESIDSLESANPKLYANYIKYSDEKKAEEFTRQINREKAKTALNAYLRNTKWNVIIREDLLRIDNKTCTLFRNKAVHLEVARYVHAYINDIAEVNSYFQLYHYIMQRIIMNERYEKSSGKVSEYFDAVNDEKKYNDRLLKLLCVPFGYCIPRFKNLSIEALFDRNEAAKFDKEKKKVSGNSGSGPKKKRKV

[2] = target: CD176 PV1-tandem CaffVHH-L1-iCre-271C-NLS-BGHpA
[3] = target: T2, CD244 PV1-GAI-L1-RfxCas13d-560C-NLS-BGHpA
T2 sequence: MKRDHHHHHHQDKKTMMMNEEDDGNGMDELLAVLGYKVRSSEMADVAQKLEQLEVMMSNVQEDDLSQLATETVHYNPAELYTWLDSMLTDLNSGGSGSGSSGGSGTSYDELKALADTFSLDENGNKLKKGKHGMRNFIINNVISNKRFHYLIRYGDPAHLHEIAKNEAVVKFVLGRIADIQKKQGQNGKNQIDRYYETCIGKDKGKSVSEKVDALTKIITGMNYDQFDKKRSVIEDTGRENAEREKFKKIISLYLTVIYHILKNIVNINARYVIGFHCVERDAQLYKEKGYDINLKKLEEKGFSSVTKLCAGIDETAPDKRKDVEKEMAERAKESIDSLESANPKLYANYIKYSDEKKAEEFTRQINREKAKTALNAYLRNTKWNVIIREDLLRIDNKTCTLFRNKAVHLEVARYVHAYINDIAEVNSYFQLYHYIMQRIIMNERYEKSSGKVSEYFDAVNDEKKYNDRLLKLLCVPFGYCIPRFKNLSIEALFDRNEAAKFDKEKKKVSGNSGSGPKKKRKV

[4] = target: T3, CD246 PV1-GAI-L1-RfxCas13d-566C-NLS-BGHpA
T3 sequence: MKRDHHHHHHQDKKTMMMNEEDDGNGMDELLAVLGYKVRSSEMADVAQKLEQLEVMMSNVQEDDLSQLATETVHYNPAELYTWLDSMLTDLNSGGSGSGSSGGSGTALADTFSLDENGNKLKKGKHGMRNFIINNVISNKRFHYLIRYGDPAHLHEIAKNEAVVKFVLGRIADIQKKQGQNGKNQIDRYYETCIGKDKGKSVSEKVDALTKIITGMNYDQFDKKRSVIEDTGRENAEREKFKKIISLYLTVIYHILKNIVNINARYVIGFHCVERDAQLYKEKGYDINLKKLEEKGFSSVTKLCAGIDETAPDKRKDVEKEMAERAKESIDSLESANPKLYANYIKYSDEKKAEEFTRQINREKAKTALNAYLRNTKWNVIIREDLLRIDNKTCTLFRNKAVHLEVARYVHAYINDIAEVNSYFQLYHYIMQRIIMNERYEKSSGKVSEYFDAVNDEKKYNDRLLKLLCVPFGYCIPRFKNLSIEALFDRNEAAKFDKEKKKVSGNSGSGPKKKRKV

[5] = target: CD92 PV1-CaffVHH-L1-iCre-271C-NLS-BGHpA
Sequence of CD92 PV1-CaffVHH-L1-iCre-271C-NLS-BGHpA (chain, as listed by the source): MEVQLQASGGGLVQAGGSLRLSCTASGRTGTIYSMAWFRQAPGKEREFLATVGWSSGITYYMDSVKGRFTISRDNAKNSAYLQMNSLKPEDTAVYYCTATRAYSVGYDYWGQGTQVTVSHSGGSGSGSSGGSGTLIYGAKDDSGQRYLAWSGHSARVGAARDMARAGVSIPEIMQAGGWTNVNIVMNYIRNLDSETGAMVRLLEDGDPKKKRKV

Sequence of CD176 PV1-tandem CaffVHH-L1-iCre-271C-NLS-BGHpA (chain, as listed by the source): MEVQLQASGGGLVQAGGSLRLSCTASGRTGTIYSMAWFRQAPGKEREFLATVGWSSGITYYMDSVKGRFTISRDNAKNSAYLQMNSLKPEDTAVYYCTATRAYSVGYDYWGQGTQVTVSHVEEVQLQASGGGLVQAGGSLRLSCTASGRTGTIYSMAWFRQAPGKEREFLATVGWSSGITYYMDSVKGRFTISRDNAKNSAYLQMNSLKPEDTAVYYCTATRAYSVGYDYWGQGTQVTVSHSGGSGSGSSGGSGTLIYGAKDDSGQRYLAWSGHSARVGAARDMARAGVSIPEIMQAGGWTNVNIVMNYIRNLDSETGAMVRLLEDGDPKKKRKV

B2: CD175 PV1-iCre-N270-L1-tandem CaffVHH-NLS-BGHpA (protein)
chain: MSNLLTVHQNLPALPVDATSDEVRKNLMDMFRDRQAFSEHTWKMLLSVCRSWAAWCKLNNRKWFPAEPEDVRDYLLYLQARGLAVKTIQQHLGQLNMLHRRSGLPRPSDSNAVSLVMRRIRKENVDAGERAKQALAFERTDFDQVRSLMENSDRCQDIRNLAFLGIAYNTLLRIAEIARIRVKDISRTDGGRMLIHIGRTKTLVSTAGVEKALSLGVTKLVERWISVSGVADDPNNYLFCRVRKNGVAAPSATSQLSTRALEGIFEATHRSGGSGSGSSGGSGTMEVQLQASGGGLVQAGGSLRLSCTASGRTGTIYSMAWFRQAPGKEREFLATVGWSSGITYYMDSVKGRFTISRDNAKNSAYLQMNSLKPEDTAVYYCTATRAYSVGYDYWGQGTQVTVSHVEEVQLQASGGGLVQAGGSLRLSCTASGRTGTIYSMAWFRQAPGKEREFLATVGWSSGITYYMDSVKGRFTISRDNAKNSAYLQMNSLKPEDTAVYYCTATRAYSVGYDYWGQGTQVTVSHPKKKRKV
caffeine concentration at maximum recombination efficiency [2]: 20 µM caffeine
recombination against the single CaffVHH version, same induction conditions [2]: < 13 fold

B3: CD243 PV1-RfxCas13d-N559-L1-GID-NLS-BGHpA (protein)
chain: MIEKKKSFAKGMGVKSTLVSGSKVYMTTFAEGSDARLEKIVEGDSIRSVNEGEAFSAEMADKNAGYKIGNAKFSHPKGYAVVANNPLYTGPVQQDMLGLKETLEKRYFGESADGNDNICIQVIHNILDIEKILAEYITNAAYAVNNISGLDKDIIGFGKFSTVYTYDEFKDPEHHRAAFNNNDKLINAIKAQYDEFDNFLDNPRLGYFGQAFFSKEGRNYIINYGNECYDILALLSGLRHWVVHNNEEESRISRTWLYNLDKNLDNEYISTLNYLYDRITNELTNSFSKNSAANVNYIAETLGINPAEFAEQYFRFSIMKEQKNLGFNITKLREVMLDRKDMSEIRKNHKVFDSIRTKVYTMMDFVIYRYYIEEDAKVAAANKSLPDNEKSLSEKDIFVINLRGSFNDDQKDALYYDEANRIWRKLENIMHNIKEFRGNKTREYKKKDAPRLPRILPAGRDVSAFSKLMYALTMFLDGKEINDLLTTLINKFDNIQSFLKVMPLIGVNAKFVEEYAFFKDSAKIADELRLIKSFARMGEPIADARRAMYIDAIRILGTNLSGGSGSGSSGGSGTMAASDEVNLIESRTVVPLNTWVLISNFKVAYNILRRPDGTFNRHLAEYLDRKVTANANPVDGVFSFDVLIDRRINLLSRVYRPAYADQEQPPSILDLEKPVDGDIVPVILFFHGGSFAHSSANSAIYDTLCRRLVGLCKCVVVSVNYRRAPENPYPCAYDDGWIALNWVNSRSWLKSKKDSKVHIFLAGDSSGGNIAHNVALRAGESGIDVLGNILLNPMFGGNERTESEKSLDGKYFVTVRDRDWYWKAFLPEGEDREHPACNPFSPRGKSLEGVSFPKSLVVVAGLDLIRDWQLAYAEGLKKAGQEVKLMHLEKATVGFYLLPNNNHFHNVMDEISAFVNAECPKKKRKV
basal knockdown of mCherry induced by gRNA, no gibberellin [3]: 10 to 20%
drug-induced knockdown of mCherry with gRNA [3]: > 75%

B5: CD91 PV1-iCre-N270-L1-CaffVHH-NLS-BGHpA (protein)
chain: MSNLLTVHQNLPALPVDATSDEVRKNLMDMFRDRQAFSEHTWKMLLSVCRSWAAWCKLNNRKWFPAEPEDVRDYLLYLQARGLAVKTIQQHLGQLNMLHRRSGLPRPSDSNAVSLVMRRIRKENVDAGERAKQALAFERTDFDQVRSLMENSDRCQDIRNLAFLGIAYNTLLRIAEIARIRVKDISRTDGGRMLIHIGRTKTLVSTAGVEKALSLGVTKLVERWISVSGVADDPNNYLFCRVRKNGVAAPSATSQLSTRALEGIFEATHRSGGSGSGSSGGSGTMEVQLQASGGGLVQAGGSLRLSCTASGRTGTIYSMAWFRQAPGKEREFLATVGWSSGITYYMDSVKGRFTISRDNAKNSAYLQMNSLKPEDTAVYYCTATRAYSVGYDYWGQGTQVTVSHPKKKRKV
Cre reporter expression, share of transfected cells, 25 uM caffeine for 5 hours (% of transfected cells) [5]: 30
Cre reporter turned on, share of transfected cells, caffeine at least 50 uM, induction at least 5 hours (% of transfected cells) [5]: 38
Cre reporter turned on, share of transfected cells, with caffeine, 48 hours (% of transfected cells) [5]: > 80
caffeine concentration able to turn on Cre activity and generate reporter expression in 48 hours [5]: 0.1 µM caffeine
caffeine concentration at which similar, if not less, recombination efficiency was reached (single CaffVHH) [5]: 500 µM caffeine

More lines, now with the values ahead:

gRNA induced knockdown of mCherry without CID domains [1]: < 80%
B1: CD373 PV1-RfxCas13d-N559-NLS-BGHpA (protein)
chain: MIEKKKSFAKGMGVKSTLVSGSKVYMTTFAEGSDARLEKIVEGDSIRSVNEGEAFSAEMADKNAGYKIGNAKFSHPKGYAVVANNPLYTGPVQQDMLGLKETLEKRYFGESADGNDNICIQVIHNILDIEKILAEYITNAAYAVNNISGLDKDIIGFGKFSTVYTYDEFKDPEHHRAAFNNNDKLINAIKAQYDEFDNFLDNPRLGYFGQAFFSKEGRNYIINYGNECYDILALLSGLRHWVVHNNEEESRISRTWLYNLDKNLDNEYISTLNYLYDRITNELTNSFSKNSAANVNYIAETLGINPAEFAEQYFRFSIMKEQKNLGFNITKLREVMLDRKDMSEIRKNHKVFDSIRTKVYTMMDFVIYRYYIEEDAKVAAANKSLPDNEKSLSEKDIFVINLRGSFNDDQKDALYYDEANRIWRKLENIMHNIKEFRGNKTREYKKKDAPRLPRILPAGRDVSAFSKLMYALTMFLDGKEINDLLTTLINKFDNIQSFLKVMPLIGVNAKFVEEYAFFKDSAKIADELRLIKSFARMGEPIADARRAMYIDAIRILGTNLPKKKRKV

basal knockdown of mCherry induced by gRNA, no gibberellin [4]: 10 to 20%
drug-induced knockdown of mCherry with gRNA [4]: > 75%
B4: CD245 PV1-RfxCas13d-N565-L1-GID-NLS-BGHpA (protein)
chain: MIEKKKSFAKGMGVKSTLVSGSKVYMTTFAEGSDARLEKIVEGDSIRSVNEGEAFSAEMADKNAGYKIGNAKFSHPKGYAVVANNPLYTGPVQQDMLGLKETLEKRYFGESADGNDNICIQVIHNILDIEKILAEYITNAAYAVNNISGLDKDIIGFGKFSTVYTYDEFKDPEHHRAAFNNNDKLINAIKAQYDEFDNFLDNPRLGYFGQAFFSKEGRNYIINYGNECYDILALLSGLRHWVVHNNEEESRISRTWLYNLDKNLDNEYISTLNYLYDRITNELTNSFSKNSAANVNYIAETLGINPAEFAEQYFRFSIMKEQKNLGFNITKLREVMLDRKDMSEIRKNHKVFDSIRTKVYTMMDFVIYRYYIEEDAKVAAANKSLPDNEKSLSEKDIFVINLRGSFNDDQKDALYYDEANRIWRKLENIMHNIKEFRGNKTREYKKKDAPRLPRILPAGRDVSAFSKLMYALTMFLDGKEINDLLTTLINKFDNIQSFLKVMPLIGVNAKFVEEYAFFKDSAKIADELRLIKSFARMGEPIADARRAMYIDAIRILGTNLSYDELKSGGSGSGSSGGSGTMAASDEVNLIESRTVVPLNTWVLISNFKVAYNILRRPDGTFNRHLAEYLDRKVTANANPVDGVFSFDVLIDRRINLLSRVYRPAYADQEQPPSILDLEKPVDGDIVPVILFFHGGSFAHSSANSAIYDTLCRRLVGLCKCVVVSVNYRRAPENPYPCAYDDGWIALNWVNSRSWLKSKKDSKVHIFLAGDSSGGNIAHNVALRAGESGIDVLGNILLNPMFGGNERTESEKSLDGKYFVTVRDRDWYWKAFLPEGEDREHPACNPFSPRGKSLEGVSFPKSLVVVAGLDLIRDWQLAYAEGLKKAGQEVKLMHLEKATVGFYLLPNNNHFHNVMDEISAFVNAECPKKKRKV
